Measured values as given in article PMC2275666 (The EMBO Journal, 2008).
Numbering of substitutions follows the chain as printed.

Assays:
6H–hTFIIEα V390A = target: T1, 6H–hTFIIEα V390A (human, UniProt P29083 1-439, V390A); test: pull-down
T1 sequence: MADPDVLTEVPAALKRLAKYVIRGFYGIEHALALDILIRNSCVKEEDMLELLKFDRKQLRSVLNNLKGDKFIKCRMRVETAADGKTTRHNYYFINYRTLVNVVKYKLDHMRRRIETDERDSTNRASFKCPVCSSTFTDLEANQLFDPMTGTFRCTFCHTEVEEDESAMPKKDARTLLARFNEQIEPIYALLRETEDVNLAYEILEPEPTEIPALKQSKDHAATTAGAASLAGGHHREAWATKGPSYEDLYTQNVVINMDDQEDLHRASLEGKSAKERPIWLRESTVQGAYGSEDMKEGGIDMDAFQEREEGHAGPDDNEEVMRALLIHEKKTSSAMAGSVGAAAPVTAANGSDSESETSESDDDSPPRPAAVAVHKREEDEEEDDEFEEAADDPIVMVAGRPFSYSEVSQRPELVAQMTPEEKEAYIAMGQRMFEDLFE

6H–hTFIIEα S365E = target: T2, 6H–hTFIIEα S365E (human, UniProt P29083 1-439, S365E); test: pull-down
T2 sequence: T1 sequence with S365E, A390V

- binding result (6H–hTFIIEα V390A): binds
- binding result (6H–hTFIIEα S365E): binds
B1: GST-tagged hTFIIEβ (natural protein)
chain: MDPSLLRERELFKKRALSTPVVEKRSASSESSSSSSKKKKTKVEHGGSSGSKQNSDHSNGSFNLKALSGSSGYKFGVLAKIVNYMKTRHQRGDTHPLTLDEILDETQHLDIGLKQKQWLMTEALVNNPKIEVIDGKYAFKPKYNVRDKKALLRLLDQHDQRGLGGILLEDIEEALPNSQKAVKALGDQILFVNRPDKKKILFFNDKSCQFSVDEEFQKLWRSVTVDSMDEEKIEEYLKRQGISSMQESGPKKVAPIQRRKKPASQKKRRFKTHNEHLAGVLKDYSDITSSK
